One test concerns the target HLA-A*0201 (human). Kind of test: competition with 125I-labelled standard peptide for purified HLA, gel filtration; ratio = IC50 standard / IC50 test peptide.
Conditions: not given
In general terms: Size exclusion chromatography separates by hydrodynamic size, large species first.
Regarding PTQEPALGT (modifications not checked) [PSA peptide …, position 138, 9 amino acids], the binding affinity ratio (ratio to standard peptide) came to 0.0001.

Take QVHPQKVTKFM (modifications not checked) [PSA peptide …, position 182, 11 amino acids]: the binding affinity ratio (ratio to standard peptide) was 0.0001.

On to QVRGGMVFEL (modifications not checked) [PSM peptide …, position 578, 10 amino acids], for which the binding affinity ratio (ratio to standard peptide) worked out at 0.0001.

Regarding QVLVASRGRA (modifications not checked) [PSA peptide …, position 35, 10 amino acids], the binding affinity ratio (ratio to standard peptide) came to 0.0001.

As to QVYIRSTDV (modifications not checked) [PAP peptide …, position 101, 9 amino acids], the binding affinity ratio (ratio to standard peptide) came to 0.0002.

For the molecule QVLVASRGRAV (modifications not checked) [PSA peptide …, position 35, 11 amino acids], the binding affinity ratio (ratio to standard peptide) was determined as 0.0001.

Consider QLGMEQHYEL (modifications not checked) [PAP peptide …, position 72, 10 amino acids], for which the binding affinity ratio (ratio to standard peptide) turned out to be 0.0003.

On to QIPSYKKLI (modifications not checked) [PAP peptide …, position 276, 9 amino acids], for which the binding affinity ratio (ratio to standard peptide) was 0.0002.

Turning to QVSHSFPHPL (modifications not checked) [PSA peptide …, position 87, 10 amino acids], the binding affinity ratio (ratio to standard peptide) was 0.0001.

Consider QAAAETLSEV (modifications not checked) [PSM peptide …, position 740, 10 amino acids], for which the binding affinity ratio (ratio to standard peptide) is 0.0006.

Take QVWLGRHNL (modifications not checked) [Kallikrein (hK2) peptide …, position 72, 9 amino acids]: the binding affinity ratio (ratio to standard peptide) was 0.0001.

On to QLAGAKGVI (modifications not checked) [PSM peptide …, position 218, 9 amino acids], for which the binding affinity ratio (ratio to standard peptide) was 0.0001.

For the molecule PTQEPALGT (modifications not checked) [Kallikrein (hK2) peptide …, position 142, 9 amino acids], the binding affinity ratio (ratio to standard peptide) amounted to 0.0001.

In the case of QLAGAKGVIL (modifications not checked) [PSM peptide …, position 218, 10 amino acids], the binding affinity ratio (ratio to standard peptide) was 0.0006.

With QMALDVYNGL (modifications not checked) [PAP peptide …, position 297, 10 amino acids], the binding affinity ratio (ratio to standard peptide) came out at 0.0002.

A further test concerns the target HLA-A*0301 (human). Kind of test: competition with 125I-labelled standard peptide for purified HLA, gel filtration.
Conditions: not given
Turning to KSLYESWTK (modifications not checked) [… (PSM, position 491)], the binding affinity ratio (IC50 of standard peptide / IC50 of test peptide) was determined as 0.4.

Turning to MSLLKNRFLR (modifications not checked) [… (PSA, position 99)], the binding affinity ratio (IC50 of standard peptide / IC50 of test peptide) was found to be 0.007.

For FSERLQDFDK (modifications not checked) [… (PSM, position 646, 10 amino acids)], the binding affinity ratio (IC50 of standard peptide / IC50 of test peptide) stood at 0.0003.

The test is the same for the next values; noted with them: remark: other sources report otherwise.
For the molecule LGEYIRKRY (modifications not checked) [PAP 81 peptide …], the binding affinity ratio (IC50 of standard peptide / IC50 of test peptide) is 0.0002.

A further test deals with HLA-A*0201 (purified HLA class I molecule) (human). Described as above.
Conditions: not given
On to MLLRLSEPAEL (modifications not checked) [PSA peptide … (position 118, 11 amino acids)], for which the binding affinity ratio (IC50 of standard peptide / IC50 of test peptide) stood at 0.14.

NLNGAGDPLT (modifications not checked) [PSM peptide … (position 260, 10 amino acids)]: the binding affinity ratio (IC50 of standard peptide / IC50 of test peptide) was found to be 0.0002.

MTKLRELSEL (modifications not checked) [PAP peptide … (position 232, 10 amino acids)]: the binding affinity ratio (IC50 of standard peptide / IC50 of test peptide) worked out at 0.0002.

In the case of NAQLAGAKGV (modifications not checked) [PSM peptide … (position 216, 10 amino acids)], the binding affinity ratio (IC50 of standard peptide / IC50 of test peptide) was 0.0002.

NLLHETDSA (modifications not checked) [PSM peptide … (position 3, 9 amino acids)]: the binding affinity ratio (IC50 of standard peptide / IC50 of test peptide) came out at 0.0001.

The values above are taken from patent US20070020327A1.
